The values that follow come from paper PMC9806585.

Substrate in the data set: NC(=O)CC[C@H](N)C(=O)O
The data set can be described thus: cells, lysate or membranes. To be noted: standard assay: 0.4 mM oxaloacetate, pyridoxal phosphate, 150 mM sodium borate pH 8.5, 37 °C, enzyme not fully purified.

For orientation: Km means the concentration of substrate that gives half-maximal velocity.

B1: recombinant Arabidopsis GTK (Gln transaminase K) (Arabidopsis thaliana) (protein)
chain: MYLDINGVMIKQFSFKASLLPFSSNFRQSSAKIHRPIGATMTTVSTQNESTQKPVQVAKRLEKFKTTIFTQMSILAVKHGAINLGQGFPNFDGPDFVKEAAIQAIKDGKNQYARGYGIPQLNSAIAARFREDTGLVVDPEKEVTVTSGCTEAIAAAMLGLINPGDEVILFAPFYDSYEATLSMAGAKVKGITLRPPDFSIPLEELKAAVTNKTRAILMNTPHNPTGKMFTREELETIASLCIENDVLVFSDEVYDKLAFEMDHISIASLPGMYERTVTMNSLGKTFSLTGWKIGWAIAPPHLTWGVRQAHSYLTFATSTPAQWAAVAALKAPESYFKELKRDYNVKKETLVKGLKEVGFTVFPSSGTYFVVADHTPFGMENDVAFCEYLIEEVGVVAIPTSVFYLNPEEGKNLVRFAFCKDEETLRGAIERMKQKLKRKV
For the protein B1, the Km was 300 µM.
